# Data: the nanobody polyreactivity screen of Harvey et al. (2022)
# Assay: yeast display, Sf9 membrane polyspecificity reagent, FACS + sequencing; frameworks hold sequencing errors
# Outline: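 A synthetic nanobody library was expressed on Saccharomyces cerevisiae BJ5465 by galactose induction for 36–48 hours. The library was stained for 1 hour at 4 °C with 10% biotinylated, detergent-solubilized Sf9 membrane reagent and enriched with streptavidin microbeads before FACS. Low and high (top ~1%) gates were set on anti-HA fluorescence for expression and streptavidin fluorescence for reagent binding, and each polyreactivity label reflects the gate of origin.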
sequence,measurement,value
QVQLVESGGGLVQAGGSLRLSCAASGYTFPLYAMGWYRQAPGQERELVADINIGGASTYYADSVKGRFTISRDNAKNTVYLQMNSLKPEDTAVYYSAKEYYDGYFPTFDYDYWGQGTQVTVSS,polyreactivity (PSR sort gate),low polyreactivity
QVQLVESGGGLVQAGGSLRLSCAASGSTFVYYVMGWYRQAPGKERELVAAISWSDDSTYYADSVKGRFTISRDNAKNTVYLQMNSLKAEDTAVYYCAATGYPFYTSGDIEYYYWGQGTQVTVSS,polyreactivity (PSR sort gate),low polyreactivity
QVQLVESVGGLVQAGGTRRLSCDASGRTFGLNVMGWYRHAPGKERELVASIRNIGGSTYYADSVKWRFTISCDNAKNTVYLQMNSLKPEDTAVYYCAADYNLVVQGYDYWGQGTQVTVSS,polyreactivity (PSR sort gate),high polyreactivity
QVQLVESGGGLVPAGGSLRLSCAASGFTFSGYAMGWYRQAPGKERELVAAITRRGGSTYYADSVKGRFTISRDNAKNTVYLQMNSLKPEDTAVYYCAADSGYPWELDYWGQGTQVTVSS,polyreactivity (PSR sort gate),low polyreactivity
HVQLVESGGGLVQAGGSLRLSCAASGSTFFWYAMGWYRQATGKERELVAAISKTGGSTYYADSVKGRFTISRDNAQNTVYLQMNSLKPEDTAVYYCNAVRYASKAARSFDYWGQGTQVTVSS,polyreactivity (PSR sort gate),low polyreactivity
QVQLVESGGGLVQAGGSLRLSCAASGGIFGQYTMGWYRQAPGKERELVAGISKRGTLTRYADSVKGRFTISRDNAKNTVYLQMNSLKPEYSAVYYCNADYVGFFWEYDYWGQGTQVTVSS,polyreactivity (PSR sort gate),high polyreactivity
QVQLVESGGGLVQAGGSLRLSCAASGRIFHFNAIGWYRQAPGKERELFARIDTRGDSTYYADSVKGRFTISRDNAKNTVYLQMNSLKPEDTAVYYCAARGSRDGPYSGYGYWGQGTQVTVSS,polyreactivity (PSR sort gate),low polyreactivity
QVQLVESGGGLVQAGGSLRLSCAASGITFYRYTMGWYRQAPGKERELVAAIRSAGSTYYADSVKGRFTISRDNAKNTVYLQMNSLKPEDTAVYYCAATYYRYNVPYYGGNGGDYWGQGTQVTVSS,polyreactivity (PSR sort gate),high polyreactivity
QVQLLESGGGLVQAGGSLRLSCAASGRTFYFYVMGWYRQAPGKERELVARISWSGGSTYYADSVKGRFTISRDNSKNTVYLQMNSLKPEDTAVYYCNTVDSIPIGSGLYYYWGQGTQVTVSS,polyreactivity (PSR sort gate),low polyreactivity
QVQLVESGGGLVQAGGSLRLSCAASGFIFDAYAMGWYRQAPGKERELVAGISIGGRTNYADSVKGRFTISRDNAKNTVYLQMNSLKPEDTAVYYCAARNYRYYYGSYYRGPITNYEYWGQGTQVTVSS,polyreactivity (PSR sort gate),low polyreactivity
QVQLVESGGGLVQAGGRLRLSCAASGYIFYYNAIGWYRQAPGKERELVAAITSDDSTYYADSVKGRFTISRDNAKNTVYLQMNSLKPEDTAVYYCNAVRYGHWYDYWGQGTQVTVSS,polyreactivity (PSR sort gate),low polyreactivity
QVQLVESGGGLVQAGRSIRLTCAASGITFSEYAMGWYRQAPGKEREFVAAISRRGGSTYYADYVKGRFTISSDNAKNTVYLQMNSLKAEDTAVYYCNRRYVTFRFEQDYDYWGQGNQVTVSS,polyreactivity (PSR sort gate),low polyreactivity
QVQLVESGGGLVQAGGSLRLSCAASGSTLTWNDMGWYRPAPGKERELVAAIDVNDGSTYYADSVKGRFTISRDNAKNTVYLQMNSLKPEDTAVYYCAEPTDYTWLDSTLADDYWGQGTQVTVSS,polyreactivity (PSR sort gate),low polyreactivity
QVQLVESGGGLVQAGGSLRLSCAASGRIFYSYAMGGYRQAPGQERELVAAIDESDGSTYYADSVKGRFTISRDNATNTVYLQLNSLKPDDTAVYYSAADSLLVLFDYWGQGTQVTVSS,polyreactivity (PSR sort gate),low polyreactivity
KSGGGLVQAGGSLRLSCAASGRIFLEYAMAWYKQAPGKERELFASISWSGDSTYYADSVKGRFTISRDNAKNTVYLQKNSLKPEDTAVYYCNADGQVGNAVSYDYWGQGTQVTVSS,polyreactivity (PSR sort gate),low polyreactivity
QVQLVEAGGRLVQAAGSLRLSLAASAFNTTAMGWYRQAPGKDRELVAAITSDGDSTYYADSVKGRFTISRDNAQNTDYFQKNCVKPVDTAVYYCAADAVPTSVVYWGFYGMYWGQGTQVTVSS,polyreactivity (PSR sort gate),low polyreactivity
QVQLVESGGGLVQAGGSLRLSCAASGIFLGYAMGWYRQAPGKERELVAGISSGGGTYYADSVKGRFTISRDNAKNTVYLQMNSLKPEDTAVYYCNAASQYTFDSSFDYWGQGTQVTVSS,polyreactivity (PSR sort gate),low polyreactivity
QVQLVESGGGLVQAGGSLRLSCAASGRTFIGYAMGWYRQAPGKERELVAASSSGGNTYYADSVKGRFTISRDNAKNTVYLQMNSLKPEDTAVYYCAAKGYRRVARYFIGDYWGQGTQVTVSS,polyreactivity (PSR sort gate),low polyreactivity
QVQLVESGGGLVQAGGSLRLSCAASGRILAGYAMGWYRQAPGKERELVAVISVGTGSTYYADSVKGRFTISRDNAKNTVYLQMNSLKPEDTAVYYCAADPGPYKELEYGYWGQGTQVTVSS,polyreactivity (PSR sort gate),low polyreactivity
QVQLVESGGGLVQAGGSLRLSCAASGSTFPYYAMGWYRQAPGKERELVAAISSSGSRTYYADSVKGRFTISRDNAKNTVYLQMNSLKPEDTAVYYCAADNAAQPYPAGMDYWGQGTQVTVSS,polyreactivity (PSR sort gate),low polyreactivity
QVQLVESGGGLVQAGGSLRLSFAASGRTFYSYAMGWYRQAPGKETQLVASITSTGSTYYADSVKGRFTISRDNAKNTVYLQMNSLKPEDTAVYYCAARRQPRYSQRSTYYYWGQGTQVTVSS,polyreactivity (PSR sort gate),high polyreactivity
QVQLVESGGGLVQAGGSLRLSCAASGNIFGKNVMGWYRQAPGKEREFVAAITSRGGRTNYADSVKGRFTISRDNAKNTVYLQMNSLKPEDTAVYYCAKDKNYPSGYGYWGQGTQVTVSS,polyreactivity (PSR sort gate),high polyreactivity
QVQLVESGGGLVQAGGSLRLSCAASGSTFSIYAMGWYRPAPGKERELVAAITGTVGSTYYADSVKGRFTISRDNAKNTVYLQMNSLKPEDTAVYYCAARQVNYDYDYWGQGTQVTVSS,polyreactivity (PSR sort gate),low polyreactivity
QVQLVESGGGLVQAGGSLRLSCAASGSIFQWNAMGWYRQAPGKERELVAAISSGTSTNYADSVKGRFTISRDNAKNTVYLQMNSLKPEDTAVYYCAAEGRGWAAFEVGYWGQGTLVTVSS,polyreactivity (PSR sort gate),low polyreactivity
QVQLVESGGGLVQAGGSLRLSCAASGSIFWFKAMGWYRQAPGKERELVATIRYSGGSTYYADSVKGRFTISRDNEKNTVYLQRNSMKPEDTAVYYCAADAVGDGHNDYWGLGTQVTVSS,polyreactivity (PSR sort gate),high polyreactivity
QVHLVESGGGLVQAGGSLRLCCAASGITFQVYAKGCYRPAPGKERELVAAINWSGTRTYYADSVKGRFTISRDNAKNTVYLQMNSLKPEDTAVYYCAAAERSLGYYYWGQGTQVTVTS,polyreactivity (PSR sort gate),high polyreactivity
QGQLVESGAGLVQAGGSLRLSCAASGFIFYDYVMGWYRQAPGKERELVAAITGSGGGTYYADSVKGRFTISRDNAKNTVYLQMNSLKPEDTAVYYCAADYISVYGYEYWGQGTQVTVSS,polyreactivity (PSR sort gate),high polyreactivity
QVQLVESGGGLVQAGGSLRLSCAASGFTFDKNAMGWYRQAPGKERELVAAITKSGGSTYYADSVKGRFTISRDNAKNTVYLQMNSLKPEETAVYYCNAPPWSRYYYDLLRHDYWGQGTQVTVSS,polyreactivity (PSR sort gate),low polyreactivity
QVQLVESGGGLVQAGGSLRLSCAASGFIFHYYAMGWYRQAPGKERELVAAISKTGGSTYYADSVKGRFTISRDNAKNTVYLQMNSLKPEDTAVYYCAVARSAYYRGNHWGQGTQVTVSS,polyreactivity (PSR sort gate),high polyreactivity
QVQLVESGGGLVQAGGSLRLSCAASGFTFIFNAMGWYREAPGKERELVAAITWGGASTDYADSVKGRFTISRDNAKNTVNLQMKSLKPEDTAVYYCAKDNWDNPRPTSEMDYWGQGTQVTVSS,polyreactivity (PSR sort gate),low polyreactivity
QVQLVESGGGLVQAGGSLRLSCAASGSIFYRNAMGWYRQAPGKERELVAAITRSDGRTYYADSVKGRFTISRDNAKNTVYLLMNSLKPEDTAVYYCAADYSFGYRDFYYWGQGTQVTVSS,polyreactivity (PSR sort gate),low polyreactivity
QVQLVESGGGLVQAGGSLRLRCAASGRNIHWYAMGWSRQAPGKEMELVAAITGSGGRTSYADSVKGRFTISRDFAKNTVYLQMNSLKPQDTAVYYCAKRATWYTVPREGYWGQGTQVTVSS,polyreactivity (PSR sort gate),high polyreactivity
QVQLVESGGGLVQAGGSLRLSCAASGSIFAPYAMGWYRQAPGKERELVAAIRWSGGRTYYADSVKGRFTISRDNAKNTVYLQMNSLKPEDTAVYYCNAVIHRLGKTYGTNRVDYWGQGTQVTVSS,polyreactivity (PSR sort gate),high polyreactivity
QDQLVESGGGLVQAGGSLRLSCAASGFIFLNYTMGWYRQAPGKERELVAAISNGSDRTYYADSVKGRFTISRDKAKNTVYLQMNSLTPEDTAVYYCAKDRDFSSPPTESGFDYWGQGTQVTVSS,polyreactivity (PSR sort gate),low polyreactivity
QVQLVESGGGLVQAGGSLRLSCAASGSTFSTNAMGWYRQAPGKESELVASITRSGGSTYYADSVKGRFTISRDNAKNTVYLQMNSLKPEDTAVYYCNADGYYDYDYGYWGQGTQVTVSS,polyreactivity (PSR sort gate),low polyreactivity
QVHLVESGGGLVQAGGSLRLSCAASGFTFEGYAMGGYRQQPGKEREYADSVKGRFTISRDNAKNTVYLQMNSLKPEDTAVYYCASTSYVSSSRTIYSGFVEFEYLGQGTQVTVSS,polyreactivity (PSR sort gate),low polyreactivity
QVQLVESGGGLVQAGGSLRLSCAASGSTFVGNSMGWYRKAPGKERELVAAISGSAGRTYYADSVKGRFTISRDNAKNTVYLQMNSLKPEDTAFYYCNKRYRGGVVYSRYDYWGQGTQVTVSS,polyreactivity (PSR sort gate),low polyreactivity
QDQLVESGGGLVQAGGSLRLSCAASGSISSTNAMGWYRQAPGKERELVATISWIGGSTYADSVKGRFTISRDNAKNTVYLQMNSLKPEDTAVYYCNRDWIFTKDYDYWGQGTQVTVSS,polyreactivity (PSR sort gate),low polyreactivity
QVQLVESGGGLVQAGGSLRLSCAASGRTFEQYAMGWSRQAPGKERELVAAISGSGGSTFYADSVKGRFTISRDNAKNTVYLQMNSLKPEDTAVYYCNAPGDGYLYDHTYDYWGQGTQVTVSS,polyreactivity (PSR sort gate),low polyreactivity
QVQLLESGGGLVQAGGSLRLSCAASGSTFLYNAMGWYRQAPGKERELVAGIRRSGGSTYYADSVKGRFTISRDNAMNTVYLQMNSLKPEDTAVYYCNTDRTLSYQYGGYDYWGQGTQVTVSS,polyreactivity (PSR sort gate),low polyreactivity
QVQLVESGGGLVQAGGSLRLSCAASGSIFYHNAMGWYRQAPGKERELVAAITSGGSTHYADSVKGRFTISRDNAKNTVYLQMNSLKPEDTAVYYCNARDRRRTNLLDYWGQGTQVTVSS,polyreactivity (PSR sort gate),low polyreactivity
QVQLVESGGGLVQAGGSLRLSCAASGGTFYLNAMGWYRQAPGKERELVAAISKRSSTTYYADSVKGRFTISRDNAKNTVYLQMNSLKPEDTAVYYCAAEYFDWWVTYDYWGQGTQVTVSS,polyreactivity (PSR sort gate),high polyreactivity
QVQLVESGGGLDQAGGSLRLSCAASGSTFKHNAMGWYRQAPGKERKLVAGISWGGSSTYYADSVKGRFTISRDNAKNTVYLQMNSLKPEDTAVYYCAKGGYRRYGYDYWGQGTQETVSS,polyreactivity (PSR sort gate),low polyreactivity
